Test results as given in the DeepSol protein solubility set.

Test: soluble on expression in E. coli; label from the status in PepcDB or PDB records
In the case of “MGSDKIHHHHHHVTHKDMEYALDRVLAGSEKRSRSLVEEEREVVAYHEAGHALVGWMLEHTDALLKYEISIFRQKFRFPLKPLKSRRKVHFLREFLCNFPQRILENFKKIQKSYSKIQIFHQKFTQNIKKLKFPVLGEFLKFPANNSSEFLKNLKNFIKKIFFFEIFGPKLPQKVTIIPRTSAALGFAQYSPRDKHLFSKDELFDRMCMMLGGRCAENLKFGRATSGAQDDLQKVTKSAYAQVKLYGMSSIVGPLSFPNTEGFQIKPYSKKFASTFDQEATLIVAKANEATTDLIKNNMDKLETIAQALLKREVLNYEDVKKL”, the “soluble on expression in E. coli” value is reported as “not soluble”. With “MFDVVAVGELLIDFLPAGTNENGMPLFSSNPGGAPANVLAMLSKLGAKTAFIGKVGKDGFGQFLKATLDNAGIDTSNLLMSSSEMTTLAFVHLNEKGDRSFSFYRKHCADVSLDAGELDKDLLRTCHFLHFGAVSLTDEPSRTATLEAARIAKEAGAIISYDPNYRPALWSNEHEARKYMLKAVEYADLVKVSEEELWLLAESEDFSKGAHKLLAMGPSVVFVTCGEKGSYVFTGSCKANHCGYDVKVVDTTGAGDAFVGAMLWQLRGMSLEEISQICEQKWGELLAFSNAAGTIVATKKGAIPAMPDLDTINTFMRQFLEEK” the “soluble on expression in E. coli” value was “soluble”. With “MKNKGLLLKVSTGLAAVSFLFSEYLFKISFKRVDHVPETSQEKQKYAASYWEYVDWFRRINKEHWTFQTKNETERMSAYFIPSKEENSKKVVIIAHGYKGNGETMSSYAKMFYEMGFNVLLPDDRGHGQSMGEYISFGWLDRLDYLQWLKKIIKRVGPKSEILLFGVSMGASTVEMLSGEDLPSQVKCVIADCGYSSIDEEMTFLLKHHYHLPKYPFYPLVSTINRYRLGYYLGDVSSVEQLKKNKLPIFFIHGENDDYVPSYMSLENYEATTAAKELWIVNNATHAESYWLDPLEYKKRIKDFLNKYFNDKN” the “soluble on expression in E. coli” value was “not soluble”. With “MDAYRYWSREAIRADIDTRRHCLHIAIENFENDANIGTVVRTANAFAVDTVHIVGRKRWNRRGAMVTDRYQHLMHHPTTADVVAWAKQQGLTIVAIDNTPGCVPLETAELPERCLLLFGQEGPGVTQEAQDNARMTCSIAQFGSTRSINAGVAAGIAMHAWIRQHADLDNAW” the “soluble on expression in E. coli” value was “not soluble”. With “MAHHHHHHMSEINIIKAFGILLCRLKKYNPVTTGDINKFEFLFLKASYADKHWTPPKGLHENNESGLETAVRETLEETGINKDKYKLLNYQKTLKYNVKDKPKETTYYLAMLLNNEENVILSDEHTDYKWIGSHESDTYNLPESLADLLKEAEEFLNKEQL” the “soluble on expression in E. coli” value was “soluble”. With “MDDVYRAFDSVGNILNFRIVEKEQKGFWVSTKIKTVVFDSADMSSDDLFLKCLQSSYKAYFETEPAGLDKRQLMKTLIQKCGFSC” the “soluble on expression in E. coli” value was “not soluble”. For “MPLVLDLARPVSEEELRRLSELNPGYQWERSPEGRLWVSPTGGESGRRSLQLAYQLARWNEERGLGVVFDSSTGFKFPDGSILSPDAAFVERGAWEALSEAEREGFPPLAPKAVFEVRSASQDPEELRAKMGIYLRNGVLLGVLVDPYARAVEVFRPGKPPLRLEGVERVSLDPELPGFALSLPPLW”, the “soluble on expression in E. coli” value was “soluble”. For “GPGSMKKCWVFDCAAPGLYCEPRRLLKPFSTDSILDAAGRAFETVEDGLKATTWRTHHAFSARCGLTSVTRSDSTTCGKGVEESSVSRSPEDYREWHADFHLRSPSAEPHVLLSVAPHYLPSRGSGNADDGRKMEVVGSRGRWLKPWRPQTAEEQAAYDAAVLGTPLIWEEPLVLSLDCTADGVFLWSEDHGIYGEKVANRCFERHSSDAGDDSAEFKQEAFLRFRWSEQPPAQTSSVGSGRHEMKEEHVESPNVSKCGELRVFRGQRTKVEAEEPHVERISYEEADVDAGSGGFLWQSVLHRIISCGPVPKEVYFAPYVTLMESGDEVSLL”, the “soluble on expression in E. coli” value was “not soluble”. In the case of “MRPYIINQTEQAQARFGINNDFPVNVILMQPTTSHETFLEGSDYVDFESTSKLRNWPIIVGNQKYFVDPAIFARNSDYFRILMENKFFLEGAIKQLNILDESPEDILKLITVISPNSLGLYPDVIDEQNVCTVLRLCDKYLMTNLKQNCVDYLKDYNPDSREPTDIFHLFYHLCFSLNAEYEHDHSLADVALEAMFVCLVELFNSTNVTKFYRFLIELQRKSGEKDSENLKRVTDAVLHGGSIFKHRISFSEEVQGLGCHQCSMRPPARQSRSKNRKSFVLYLCKSCNREVCVQCRRSLCSRLFEDWINELRS”, the “soluble on expression in E. coli” value is reported as “not soluble”. With “MGHHHHHHSHMAGPVKDREAFQRLNFLYQAAHCVLAQDPENQALARFYCYTERTIAKRLVLRRDPSVKRTLCRGCSSLLVPGLTCTQRQRRCRGQRWTVQTCLTCQRSQRFLNDPGHLLWGDRPEAQLGSQADSKPLQPLPNTAHSISDRLPEEKMQTQGSSNQ” the “soluble on expression in E. coli” value was “not soluble”. In the case of “MSLVKYGVVGAGYFGAELARYMQKNDGAEITLLYDPDNAEAIAEELGAKVASSLDELVSSDEVDCVIVATPNNLHKEPVIKAAQHGKNVFCEKPIALSYQDCREMVDACKENNVTFMAGHIMNFFNGVHHAKELINQGVIGDVLYCHTARNGWEEQQPSVSWKKIREKSGGHLYHHIHELDCVQFLMGGMPETVTMTGGNVAHEGEHFGDEDDMIFVNMEFSNKRFALLEWGSAYRWGEHYVLIQGSKGAIRLDLFNCKGTLKLDGQESYFLIHESQEEDDDRTRIYHSTEMDGAIAYGKPGKRTPLWLSSVIDKEMRYLHEIMQGAPVSEEFAKLLTGEAALEAIATADACTQSMFEDRKVKLSEIVKEGHHHHHH”, the “soluble on expression in E. coli” value is reported as “soluble”. In the case of “VSAPDSPALAGMSIGAVLDLLRPDFPDVTISKIRFLEAEGLVTPRRASSGYRRFTAYDCARLRFILTAQRDHYLPLKVIRAQLDAQPDGELPPFGSPYVLPRLVPVAGDSAGGVGSDTASVSLTGIRLSREDLLERSEVADELLTALLKAGVITTGPGGFFDEHAVVILQCARALAEYGVEPRHLRAFRSAADRQSDLIAQIAGPLVKAGKAGARDRADDLAREVAALAITLHTSLIKSAVRDVLHR”, the “soluble on expression in E. coli” value is reported as “soluble”. In the case of “MSSHENDTPLPVPYTSRLGQPLDAGQTLNVHGKINEGAQVAEINLLQGGGEIGPNTQVILHLKLNFKEKKVILNSYENGVWGKEERESLPFQAGQEFDLRIRVLDEGLEISADNKKIHEFKHRLPFQSIEYLSVRGDLSLNGIHWGGRFYKLPWETAFPAGFLEKGQRVHLYGIPKGDRWSLDLVARNQDILFHFNPRIKDKAVVRNSHRNGFWDTEEREGGFPFKKDVGFDLTIVNEEYSIQIFINRERFGTFQHRTQNPIGDYIGLRIDGEVEVTGIEFSH”, the “soluble on expression in E. coli” value is reported as “soluble”. For “MGSDKIHHHHHHMQLLEFPNIAIIAGENAVPVAQLPLVWQDIAKGTANVGLCNPQIYVEMAQLFLYKLEQGDVDLFNERPELAHLKSSFCQLFGQLGRETLEFYGYDFMTHNYPNFEEILREVESKDADYGKVARIGLELFQEFGYELPASFYHVHLAPIYRDHVFEERALRFDKRDIEHKRSWDAILHAGKVFAVQMKVQSIASKYGFTYQHGCGCNSHLSSIDESRGTFAYELSQEKRDRWIRSFIWTAWYEYAFFPIVPNTSYLV”, the “soluble on expression in E. coli” value was “not soluble”. In the case of “MATARTARSRRKVRKVRDKWKEKVWYEIYATPEFGGVFIGYTPANDPSLVLGRVAETSLRDLTGDPTKHMHRVYFKIFGVTGNKAIAQYYGHDTTREFMKSQIRRRRSRIDAILDVKTQDGHKIRTKAMVLTAYRANTKQKSDIRKKMEEIIKAMAKEKTFPQYVQAMLFGEMAEKIKNECKKIFPIKNVIIYKSEVLSLAKKEENEGFVKEAEEETAEAQELEHHHHHH”, the “soluble on expression in E. coli” value is reported as “soluble”. For “MSLRILGRASSINVRKVLWACAEFEIAFEREDWGSGFKATDSTEFLALNPNAMIPVIQDGDFTLWESNSIIRYLASRYGATAFYPGEAQARARIDQWIDWQASDLNRSWSYAFMSLVRHSPAHQDPQALAAGCAEWSRYMRILDRQLASTGAYVAGSQFTLADIPIGLSVNRWFETPFEHPHLPAVRDYYERLSERPAYHLHGRNGTEGHHHHHH”, the “soluble on expression in E. coli” value was “soluble”. With “ANQPDWADEAANGAHQDAWKSLKARVENVYYMVKATYKNDPVWGNDFTCVGVMANDVNEDEKSIQAEFLFMNNADTNMQFATEKVTAVKMYGYNRENAFRYETEDGQVFTDVIAYSDDNCDVIYVPGTDGNEEGYELWTTDYDNIPANCLNKFNEYAVGRETRDVFTSACLE” the “soluble on expression in E. coli” value was “soluble”. For “MAHHHHHHMALPRGMHLLLKIYLQKCRLRWLREALNCIRGMVSMRLVMASMGSTPVERHKGEVAPGAEGEDTHFWLDGSFAEAEEALRQFFEMIKFPLPQRFSFAEEIRRDMKKRYPHCGEEALKSEEDITVVDAAALFKCVDGYIAFLSTRSDVGIGNAE”, the “soluble on expression in E. coli” value was “not soluble”. With “MGKGAMNRRDFLKVGGMSTLALTLGSTGLFSLEGQAKNSSNPTSGFGGFGPLVKDPNGILDLPKGFKYKILSRTGDRMTNGDLVPSMHDGMAAFQGPRNTTILVRNHENGTNADYPVNGKNPWSKGAAGGTTALVVGPNREVIREYVTNSGNIRNCAGGPSTWGTWLTCEETRDMGHGFVFEVNPHEPENEMSKTPIRDMGYFSHEACNVDPSTGIWYLTEDNSPSFFYRFTPHDRSQTLGSLQKGGILEAAAIDELPHNQASNFTSGQKIGIVWKKVNPERAKEDARDLGCIRFSRLEGSWFAGGAFWFDDTNAGEKNLGRIYRYFPATNTLELFYESSDHNDLEMPDNITITPWGDLWIAEDGNIGRDRMIGLTPEGNVYTFAENRLNNSEFAGPAFSPDGKTFYLNMQTPGITFAIWGPFARRNAARQVAMSHAAPPPGYGPQVSDKLADYAERHGMSPLAAAALERHGFIVLEHHHHHH” the “soluble on expression in E. coli” value was “not soluble”. For “MALRSVCRWHNGEPAVLSSYGLRVRLSRMEDQCRVLAAAVETLDDVFYVYDADGKLAYWNARLNELFGLTDGELSGMDPTEFFVADDRAAVEAAIEDVFESGQTSVEARAETTEGVVTFELSGRLLTGDDGTVQGFSGVGRDIT”, the “soluble on expression in E. coli” value was “not soluble”. For “MARPLKEGLDYFPLDVDADYDDKFQLIETLHGPTGFAIMIKLFMKIYSQNFYYKWTETEQILFAKRVNVDINTLKTVVNDCIKYDLFDNNLFSEFQILTSLGVQERYFTAIGRRKKQIVVLEYLLLDRPEVINLCPKIVFANINVVNDDINAEQEELMPALSAQTKGKESKVNESKAVVSEQEKLPEKIVKEKPTTTAYKFWEENVAITGLSEFDRELLKKLISLGGNELTVHAMKKAIELNRRRMKTVDTVLRGWLDNGVKTTAEADEQEKNWNGGAKKNARAEPAKQEIKISDQYNFGATRTD”, the “soluble on expression in E. coli” value was “not soluble”. In the case of “MSLTASIPINSNLIVHVGNNVRIDAFGLKARLTGDLNVVQDKQGLGLNGQINIPEGRFHAYGQDLIVRKGELLFSGPPDQPYLNIEAIRNPDATEDDVIAGVRVTGLADEPKAEIFSDPAMSQQAALSYLLRGQGLESDQSDSAAMTSMLIGLGVAQSGQIVGKIGETFGVSNLALDTQGVGDSSQVVVSGYVLPGLQVKYGVGIFDSIATLTLRYRLMPKLYLEAVSGVDQALDLLYQFEFEGHHHHHH”, the “soluble on expression in E. coli” value is reported as “not soluble”. In the case of “MSLENTTQIPESELHNLGLTDEEIQEFNQYLIDESLFQETVETSPIVVSDNEDAAQDPGFGLFTTNPVKHTDEHIGALYFSDLPGISNLTCTANYIGGKFWTTAHHCVEGRSRFVGFIEQSDGQYAGIEHVYTKSSDYDIALIKVGSGIDAEQFSLTRSRPAVGKMLEVVGFAVVNPFSSRATMEVTNSNTVANYPMSNLYYKDVFSAKPAGSFPYVISGGDSGAAVWSGETMYGIASGSNGSTKNLAANVGPHVSWIEQTMQNNSNSSPYEILQAFRGGLATSYPKYNQIRDLVDSSEGHHHHHH”, the “soluble on expression in E. coli” value is reported as “soluble”.
